Laboratory results published in patent US20220251562, “Anti-CD3 Aptamers for Use in Cell Targeting and Labeling” (Ixaka France, published 2022).

Key:
[1] = target: T1, CD3 epsilon/delta heterodimer (Homo sapiens, UniProt P07766;P04234 P07766:23-126,P04234:22-105); assay: SPR; same value in Table 3; details: tags: C-terminal human IgG1 Fc fusion, AcroBiosystems; chain copies: heterodimer 1:1 (inferred); label: 5'-biotin-TEG
Protocol: (§1) Binding affinity measurements were performed using a BIAcore T200 instrument (GE Healthcare). To analyze interactions between aptamers and CD3 proteins, 1000 Resonance Units of biotinylated aptamers were immobilized on Series S Sensor chips SA (GE Healthcare) according to manufacturer's instructions (GE Healthcare). SELEX buffer was used as the running buffer. The interactions were measured in the “Single Kinetics Cycle” mode at a flow rate of 30 μl/min and by injecting different concentrations of human CD3 ε/γ, CD3 ε/δ, IgG1 Fc and mouse CD3 ε/δ (Sino Biological). The highest protein concentration used was 100 nM. Other concentrations were obtained by 3-fold dilution. All kinetic data of the interaction were evaluated using the BIAcore T200 evaluation software. Table 3 below provides a summary of KD values obtained from surface plasmon resonance measurements.
(§2) Further, it was observed that compared to the aptamer CELTIC_1 (CD3-1 in Table 1), CELTIC_1s (CD3-1s) bound to the CD3 proteins more strongly. Table 4 below provides a summary of KD values obtained from another set of surface plasmon resonance measurements. It includes KD values of the first five aptamers with and without flanking regions.

[2] = target: T2, CD3 epsilon/gamma heterodimer (Homo sapiens, UniProt P07766;P09693 P07766:23-126,P09693:23-116); assay: SPR; same value in Table 3; details: tags: C-terminal human IgG1 Fc fusion, AcroBiosystems; chain copies: heterodimer 1:1 (inferred); label: 5'-biotin-TEG
T2 sequence (P07766 23-126, chain 1 of 2): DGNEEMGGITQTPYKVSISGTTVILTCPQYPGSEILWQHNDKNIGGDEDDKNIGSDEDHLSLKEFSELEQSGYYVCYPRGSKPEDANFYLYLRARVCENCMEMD
T2 sequence (P09693 23-116, chain 2 of 2): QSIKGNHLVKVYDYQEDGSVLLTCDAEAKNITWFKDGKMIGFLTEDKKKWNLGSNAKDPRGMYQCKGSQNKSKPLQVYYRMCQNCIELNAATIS
Protocol: as §1, §2

[3] = target: T1, CD3 epsilon/delta heterodimer; assay: SPR; kinetic; details: tags: C-terminal human IgG1 Fc fusion, AcroBiosystems; chain copies: heterodimer 1:1 (inferred); label: biotin; G4 predicted
Protocol: (§3) Binding affinity measurements with the most interesting anti-CD3 aptamers derived from the core sequence were performed using a BIAcore T200 instrument (GE Healthcare) as already described in Example 4. To analyze interactions between aptamers and CD3 proteins, biotinylated aptamers were immobilized at a lower density than in Example 4 (100-500 RU) on Series S Sensor chips SA (GE Healthcare) according to manufacturer's instructions (GE Healthcare). Mouse and Cynomolgus CD3 ε/δ were purchased from AcroBiosystems. For human proteins, the highest concentration used was 100 nM and 1 μM for mouse and cynomolgus antigens. Other concentrations were obtained by 3-fold dilutions.
(§4) Table 8 below provides a summary of KD values obtained from surface plasmon resonance measurements. […] Variants of the core sequence identified in cell binding assays (CELTIC_core_12, CELTIC_core_24, CELTIC_core_29, CELTIC_core_40 and CELTIC_core_42) were all confirmed to have better affinities than the unmodified aptamer with human CD3 ε/γ. As already observed in Example 4, the affinities were in general slightly lower with CD3 ε/δ which is a consequence of the SELEX strategy that included more rounds on the CD3 ε/γ isoform. None of these sequences did bind to the Fc region of human IgG1.

IgG1 Fc (counter target) [4] = target: T3, IgG1 Fc (counter target) (Homo sapiens, UniProt P01857-1 P01857-1:100-330); assay: SPR; NA; details: tags: AcroBiosystems; chain copies: 2; label: biotin; G4 predicted
Protocol: as §3, §4

[5] = target: T2, CD3 epsilon/gamma heterodimer; assay: SPR; steady state; kinetic 0.2 pM (Table 8); details: tags: C-terminal human IgG1 Fc fusion, AcroBiosystems; chain copies: heterodimer 1:1 (inferred); label: biotin; G4 predicted
Protocol: as §3
(§5) Table 9 below provides a summary of KD values obtained from surface plasmon resonance measurements performed with human CD3 ε/γ and mouse and cynomolgus CD3 ε/δ. […] In these conditions, 3′-3′ deoxy-thymidine-modified versions of the latest four aptamers performed equally well. All these sequenced-optimized aptamers were able to bind the murine and cynomolgus CD3 ε/δ isoforms confirming the cross-specificity of the CD3 aptamers already observed in Examples 3 and 5.

[6] = target: T1, CD3 epsilon/delta heterodimer; assay: SPR; steady state; kinetic 41.1 nM (Table 6); details: tags: C-terminal human IgG1 Fc fusion, AcroBiosystems; chain copies: heterodimer 1:1 (inferred); label: 5'-biotin-TEG
Protocol: as §1

[7] = target: T2, CD3 epsilon/gamma heterodimer; assay: SPR; steady state; kinetic fit suboptimal; details: tags: C-terminal human IgG1 Fc fusion, AcroBiosystems; chain copies: heterodimer 1:1 (inferred); label: 5'-biotin-TEG
Protocol: as §1

IgG1 Fc (counter target) [8] = target: T3, IgG1 Fc (counter target); assay: SPR; no interaction observed; details: tags: AcroBiosystems; chain copies: 2; label: 5'-biotin-TEG
Protocol: as §1

[9] = target: T2, CD3 epsilon/gamma heterodimer; assay: SPR; steady state; kinetic 4.1 nM (Table 6); details: tags: C-terminal human IgG1 Fc fusion, AcroBiosystems; chain copies: heterodimer 1:1 (inferred); label: 5'-biotin-TEG
Protocol: as §1

[10] = target: T1, CD3 epsilon/delta heterodimer; assay: SPR; steady state; kinetic 3.4 nM (Table 6); details: tags: C-terminal human IgG1 Fc fusion, AcroBiosystems; chain copies: heterodimer 1:1 (inferred); label: 5'-biotin-TEG
Protocol: as §1

[11] = target: T1, CD3 epsilon/delta heterodimer; assay: SPR; steady state; kinetic fit suboptimal; details: tags: C-terminal human IgG1 Fc fusion, AcroBiosystems; chain copies: heterodimer 1:1 (inferred); label: 5'-biotin-TEG
Protocol: as §1

[12] = target: T1, CD3 epsilon/delta heterodimer; assay: SPR; steady state; kinetic 3.7 nM (Table 6); details: tags: C-terminal human IgG1 Fc fusion, AcroBiosystems; chain copies: heterodimer 1:1 (inferred); label: 5'-biotin-TEG
Protocol: as §1

[13] = target: T2, CD3 epsilon/gamma heterodimer; assay: SPR; steady state; kinetic 3.8 nM (Table 6); details: tags: C-terminal human IgG1 Fc fusion, AcroBiosystems; chain copies: heterodimer 1:1 (inferred); label: 5'-biotin-TEG
Protocol: as §1

[14] = target: T2, CD3 epsilon/gamma heterodimer; assay: SPR; steady state; kinetic 3.9 nM (Table 6); details: tags: C-terminal human IgG1 Fc fusion, AcroBiosystems; chain copies: heterodimer 1:1 (inferred); label: 5'-biotin-TEG
Protocol: as §1

[15] = target: T1, CD3 epsilon/delta heterodimer; assay: SPR; steady state; kinetic 3.2 nM (Table 6); details: tags: C-terminal human IgG1 Fc fusion, AcroBiosystems; chain copies: heterodimer 1:1 (inferred); label: 5'-biotin-TEG
Protocol: as §1

[16] = target: T2, CD3 epsilon/gamma heterodimer; assay: SPR; steady state; kinetic 9.5 pM (Table 6), 304 pM (Table 8); 99 nM steady state (Table 9); details: tags: C-terminal human IgG1 Fc fusion, AcroBiosystems; chain copies: heterodimer 1:1 (inferred); label: 5'-biotin-TEG
[17] = target: T1, CD3 epsilon/delta heterodimer; assay: SPR; steady state; kinetic 8.2 nM (Table 6), 900 pM (Table 8); details: tags: C-terminal human IgG1 Fc fusion, AcroBiosystems; chain copies: heterodimer 1:1 (inferred); label: 5'-biotin-TEG
Protocol: as §1

[18] = target: T1, CD3 epsilon/delta heterodimer; assay: SPR; steady state; kinetic 23.3 nM (Table 6); details: tags: C-terminal human IgG1 Fc fusion, AcroBiosystems; chain copies: heterodimer 1:1 (inferred); label: 5'-biotin-TEG
Protocol: as §1

[19] = target: T2, CD3 epsilon/gamma heterodimer; assay: SPR; steady state; kinetic 2.3 nM (Table 6); details: tags: C-terminal human IgG1 Fc fusion, AcroBiosystems; chain copies: heterodimer 1:1 (inferred); label: 5'-biotin-TEG
Protocol: as §1

[20] = target: T1, CD3 epsilon/delta heterodimer; assay: SPR; steady state; kinetic 2.7 nM (Table 6); details: tags: C-terminal human IgG1 Fc fusion, AcroBiosystems; chain copies: heterodimer 1:1 (inferred); label: 5'-biotin-TEG
Protocol: as §1

[21] = target: T1, CD3 epsilon/delta heterodimer; assay: SPR; steady state; 62.2 nM (Table 3); kinetic 3.4 nM (Table 6); details: tags: C-terminal human IgG1 Fc fusion, AcroBiosystems; chain copies: heterodimer 1:1 (inferred); label: 5'-biotin-TEG
Protocol: as §1

[22] = target: T2, CD3 epsilon/gamma heterodimer; assay: SPR; steady state; 43.6 nM (Table 3); kinetic 2.8 nM (Table 6); details: tags: C-terminal human IgG1 Fc fusion, AcroBiosystems; chain copies: heterodimer 1:1 (inferred); label: 5'-biotin-TEG
Protocol: as §1

[23] = target: T2, CD3 epsilon/gamma heterodimer; assay: SPR; steady state; kinetic 104 pM (Table 8); details: tags: C-terminal human IgG1 Fc fusion, AcroBiosystems; chain copies: heterodimer 1:1 (inferred); label: biotin; G4 predicted
Protocol: as §3, §5

[24] = target: T1, CD3 epsilon/delta heterodimer; assay: SPR; NA; details: tags: C-terminal human IgG1 Fc fusion, AcroBiosystems; chain copies: heterodimer 1:1 (inferred); label: 5'-biotin-TEG
Protocol: as §1, §2

[25] = target: T2, CD3 epsilon/gamma heterodimer; assay: SPR; NA; details: tags: C-terminal human IgG1 Fc fusion, AcroBiosystems; chain copies: heterodimer 1:1 (inferred); label: 5'-biotin-TEG
Protocol: as §1, §2

IgG1 Fc (counter target) [26] = target: T3, IgG1 Fc (counter target); assay: SPR; no interaction observed; aptamer also NA for CD3; details: tags: AcroBiosystems; chain copies: 2; label: 5'-biotin-TEG
Protocol: as §1, §2

T1 sequence (P07766 23-126, stated change not applied, chain 1 of 2): as the sequence (P07766 23-126, chain 1 of 2) above
T1 sequence (P04234 22-105, stated change not applied, chain 2 of 2): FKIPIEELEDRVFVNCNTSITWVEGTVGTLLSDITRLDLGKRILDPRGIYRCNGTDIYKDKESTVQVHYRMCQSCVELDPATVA

B1: CELTIC_3 (ssDNA)
DNA: TAGGGAAGAGAAGGACATATGATGCGTAAGGGTTTGGCAGCGGGCCTGGCGGAACGCGTGTATTTGACTAGTACATGACCACTTGA
Binder B1 has a Kd [1] of 86.5 nM and a Kd [2] of 65.4 nM.

With GGGTTTGGCATCGGGTCTGGC (ssDNA, 5'-HEG) [CELTIC_core_40] the Kd [3] was 0.0052 nM, the binding result (IgG1 Fc (counter target) [4]) was “no binding” and the Kd [5] was 129 nM.

For GCGTAAGGGTTTGGCAGCGGGCCTGGCGGAACGCGTGTAT (ssDNA) [CELTIC_3s], the Kd [6] was 409 nM, the Kd [7] was 156 nM and the binding result (IgG1 Fc (counter target) [8]) was “no binding”.

GGAGTGGAGTATTCCGGGTTTGGCATCGGGCCTGGCGAAG (ssDNA) [CELTIC_4s] was tested, and the Kd [9] was 117 nM, the binding result (IgG1 Fc (counter target) [8]) was “no binding” and the Kd [10] was 144 nM.

In the case of CGGCAGGGGTTTGGCTCCGGGTCTGGCGAACTGGCTGAGA (ssDNA) [CELTIC_5s], the Kd [11] is reported as 120 nM, the Kd [7] is reported as 182 nM and the binding result (IgG1 Fc (counter target) [8]) is reported as “no binding”.

AAGGGATTGGCGTCGGGCCTGGCGTAAGGAGGCTATGCTC (ssDNA) [CELTIC_6s] was tested, and the Kd [11] was 168 nM, the Kd [7] was 287 nM and the binding result (IgG1 Fc (counter target) [8]) was “no binding”.

In the case of GCATCGAAATGGGGTTGGCACCGGGCCTGGCGAATTGGAT (ssDNA) [CELTIC_9s], the binding result (IgG1 Fc (counter target) [8]) is reported as “no binding”, the Kd [12] is reported as 60.5 nM and the Kd [13] is reported as 47.3 nM.

For GATGGAGGGTTTGGCGGTGGGCCTGGCAAGTTATCTCATA (ssDNA) [CELTIC_11s], the Kd [14] was 94 nM, the binding result (IgG1 Fc (counter target) [8]) was “no binding” and the Kd [15] was 138 nM.

TACCGCGGGGATTGGCTCCGGGCCTGGCGTCGTAATCTGA (ssDNA) [CELTIC_19s] was tested, and the Kd [16] was 104 nM, the Kd [17] was 150 nM and the binding result (IgG1 Fc (counter target) [8]) was “no binding”.

In the case of GGTCGGGTGCTACTGAGCGATTGGCTTTCCGGACTGGGGA (ssDNA) [CELTIC_21s], the Kd [18] is reported as 405 nM, the Kd [7] is reported as 155 nM and the binding result (IgG1 Fc (counter target) [8]) is reported as “no binding”.

CGACCACAGGGGTTTGGCTTCGGGACTGGCGGTGGGCACT (ssDNA) [CELTIC_22s (printed CELTIC_CD3_22)] was tested, and the Kd [19] was 162 nM and the Kd [20] was 164 nM.

B2: CELTIC_21 (ssDNA)
DNA: TAGGGAAGAGAAGGACATATGATGGTCGGGTGCTACTGAGCGATTGGCTTTCCGGACTGGGGATTGACTAGTACATGACCACTTGA
Work on B2 yielded a Kd [21] of 49.8 nM and a Kd [22] of 56.4 nM.

GGGTTTGGCATCGGGTCTGGC (ssDNA, 5'-HEG; 3'-3' dT) [CELTIC_core_40t] was tested, and the Kd [3] was 0.01 nM and the Kd [23] was 156 nM.

B3: CELTIC_1 (ssDNA)
DNA: TAGGGAAGAGAAGGACATATGATCCGGGTGGGGGTTTGGCACCGGGCCTGGCGCAGGGATTCGTTGACTAGTACATGACCACTTGA
B3: no binding [24]; no binding [25]; no binding (IgG1 Fc (counter target) [26]).

B4: CELTIC_2 (ssDNA)
DNA: TAGGGAAGAGAAGGACATATGATGAGGGGTTTGGCATCGGGCCTGGCGCCATTCAAGCTATGCTTGACTAGTACATGACCACTTGA
B4: no binding [24]; no binding [25]; no binding (IgG1 Fc (counter target) [26]).
